Test results reported in PMC11127164, “Brefeldin A and M-COPA block the export of RTKs from the endoplasmic reticulum via simultaneous inactivation of ARF1, ARF4, and ARF5” (The Journal of Biological Chemistry, 2024).
One block for each binder: values may come before it.

Columns and labels:
[1] = biological target: T1, glutathione S-transferase-fused Golgi-localized γ-adaptin ear-containing, ARF-binding protein 3 (1–316) (UniProt Q9NZ52 1-316); experiment: pull-down; GST-GGA3(1–316)-coated Sepharose beads incubated with lysates of GIST-T1 or PC-9 cells at 4 °C for 1 h, washed once, immunoblot for ARFs; cells untreated or treated with 1 μM M-COPA or 1 μM BFA for 4 h (GIST-T1) or 200 nM M-COPA for 8 h (PC-9); conditions: one partner purified
T1 construct: also called GST-GGA3; GST-GGA3(1–316); source: bought: Cytoskeleton, coated on Sepharose beads
T1 sequence (looked up): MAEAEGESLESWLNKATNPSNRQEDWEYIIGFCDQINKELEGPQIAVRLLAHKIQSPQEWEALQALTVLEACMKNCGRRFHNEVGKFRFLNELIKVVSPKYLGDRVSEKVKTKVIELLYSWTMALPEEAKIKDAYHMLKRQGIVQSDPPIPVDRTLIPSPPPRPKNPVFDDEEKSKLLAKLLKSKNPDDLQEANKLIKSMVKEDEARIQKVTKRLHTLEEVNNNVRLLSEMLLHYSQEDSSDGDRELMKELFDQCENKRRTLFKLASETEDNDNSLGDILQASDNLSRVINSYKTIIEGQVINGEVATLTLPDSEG

[2] = biological target: T2, Golgi-specific BFA-resistance guanine nucleotide exchange factor 1 (human (endogenous in GIST-T1), UniProt Q92538 1-1860); experiment: co-IP; endogenous GBF1 immunoprecipitated from GIST-T1 lysate (NP-40 lysis buffer, 50 mM HEPES pH 7.4) with anti-GBF1 on Dynabeads Protein G, 4 °C, 5 h, immunoblot for ARFs; cells untreated or treated with 1 μM M-COPA for 4 h; co-precipitated ARF normalised to GBF1; conditions: partners not purified
T2 construct: Golgi-specific BFA-resistance guanine nucleotide exchange factor 1 (GBF1), human, endogenous in GIST-T1 cells; Immunoprecipitated with an anti-GBF1 antibody on Dynabeads Protein G; also called GBF1; source: endogenous, GIST-T1 lysate
T2 sequence (Q92538 whole entry): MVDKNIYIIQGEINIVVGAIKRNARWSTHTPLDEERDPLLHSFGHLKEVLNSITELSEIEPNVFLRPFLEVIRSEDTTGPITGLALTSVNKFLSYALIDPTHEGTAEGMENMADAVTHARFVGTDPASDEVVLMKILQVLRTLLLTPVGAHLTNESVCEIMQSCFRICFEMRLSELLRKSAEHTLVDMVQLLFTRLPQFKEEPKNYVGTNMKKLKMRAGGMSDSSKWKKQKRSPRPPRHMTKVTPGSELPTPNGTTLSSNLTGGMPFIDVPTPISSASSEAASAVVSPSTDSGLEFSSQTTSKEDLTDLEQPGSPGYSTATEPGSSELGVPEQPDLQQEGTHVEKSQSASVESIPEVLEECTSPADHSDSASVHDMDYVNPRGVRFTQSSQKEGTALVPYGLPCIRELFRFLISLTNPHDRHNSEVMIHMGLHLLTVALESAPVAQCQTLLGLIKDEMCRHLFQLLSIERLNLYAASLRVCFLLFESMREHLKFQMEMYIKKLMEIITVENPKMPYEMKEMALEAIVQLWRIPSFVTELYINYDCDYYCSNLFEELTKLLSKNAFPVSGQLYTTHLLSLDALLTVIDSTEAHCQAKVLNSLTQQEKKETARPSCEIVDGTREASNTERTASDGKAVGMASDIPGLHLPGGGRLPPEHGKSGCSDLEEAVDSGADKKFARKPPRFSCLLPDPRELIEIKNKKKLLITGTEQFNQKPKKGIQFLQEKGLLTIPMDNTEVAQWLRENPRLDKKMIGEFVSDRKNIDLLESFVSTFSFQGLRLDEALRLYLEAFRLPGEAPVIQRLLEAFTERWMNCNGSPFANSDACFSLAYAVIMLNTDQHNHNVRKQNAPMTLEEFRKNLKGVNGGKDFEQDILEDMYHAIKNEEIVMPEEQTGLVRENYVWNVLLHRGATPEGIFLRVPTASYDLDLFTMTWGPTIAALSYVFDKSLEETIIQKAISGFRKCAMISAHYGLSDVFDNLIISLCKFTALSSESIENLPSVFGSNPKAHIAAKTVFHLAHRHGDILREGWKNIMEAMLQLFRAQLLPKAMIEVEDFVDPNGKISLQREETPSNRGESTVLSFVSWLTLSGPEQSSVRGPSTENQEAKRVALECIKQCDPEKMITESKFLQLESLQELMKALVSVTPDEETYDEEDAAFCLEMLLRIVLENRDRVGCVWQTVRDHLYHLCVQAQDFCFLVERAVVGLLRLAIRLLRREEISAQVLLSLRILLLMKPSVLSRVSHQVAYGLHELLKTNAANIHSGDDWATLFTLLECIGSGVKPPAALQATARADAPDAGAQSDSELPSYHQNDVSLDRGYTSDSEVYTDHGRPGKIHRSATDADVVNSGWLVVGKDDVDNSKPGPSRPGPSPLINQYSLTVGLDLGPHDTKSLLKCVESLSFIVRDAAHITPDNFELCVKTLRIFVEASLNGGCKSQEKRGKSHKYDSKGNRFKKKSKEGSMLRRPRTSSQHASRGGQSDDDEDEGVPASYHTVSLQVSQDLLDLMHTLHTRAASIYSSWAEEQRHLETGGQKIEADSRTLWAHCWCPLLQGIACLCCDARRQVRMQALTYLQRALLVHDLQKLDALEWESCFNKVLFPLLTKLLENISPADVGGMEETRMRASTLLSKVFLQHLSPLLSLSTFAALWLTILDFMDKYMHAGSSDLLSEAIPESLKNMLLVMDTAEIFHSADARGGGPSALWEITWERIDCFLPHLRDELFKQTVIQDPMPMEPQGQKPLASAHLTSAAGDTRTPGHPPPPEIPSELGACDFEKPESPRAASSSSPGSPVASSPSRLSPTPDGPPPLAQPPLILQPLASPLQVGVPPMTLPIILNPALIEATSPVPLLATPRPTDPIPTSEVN

- level of GGA3-bound ARF after M-COPA treatment of the cells, relative to the untreated control [1]: < 18%
- fold increase of ARF co-immunoprecipitated with GBF1 after M-COPA treatment, relative to the untreated control [2]: 14.1 fold
B1: ADP-ribosylation factor 4 (natural protein, human (endogenous in GIST-T1 and PC-9), UniProt P18085 1-180, looked up)
chain: MGLTISSLFSRLFGKKQMRILMVGLDAAGKTTILYKLKLGEIVTTIPTIGFNVETVEYKNICFTVWDVGGQDRIRPLWKHYFQNTQGLIFVVDSNDRERIQEVADELQKMLLVDELRDAVLLLFANKQDLPNAMAISEMTDKLGLQSLRNRTWYVQATCATQGTGLYEGLDWLSNELSKR
notes: ADP-ribosylation factor 4 (ARF4), human, endogenous in GIST-T1 and PC-9 cells; also called ARF4; source: endogenous, GIST-T1 and PC-9 lysate

- level of GGA3-bound ARF after M-COPA treatment of the cells, relative to the untreated control [1]: < 18%
- fold increase of ARF co-immunoprecipitated with GBF1 after M-COPA treatment, relative to the untreated control [2]: 8.66 fold
B2: ADP-ribosylation factor 5 (natural protein, human (endogenous in GIST-T1 and PC-9), UniProt P84085 1-180, looked up)
chain: MGLTVSALFSRIFGKKQMRILMVGLDAAGKTTILYKLKLGEIVTTIPTIGFNVETVEYKNICFTVWDVGGQDKIRPLWRHYFQNTQGLIFVVDSNDRERVQESADELQKMLQEDELRDAVLLVFANKQDMPNAMPVSELTDKLGLQHLRSRTWYVQATCATQGTGLYDGLDWLSHELSKR
notes: ADP-ribosylation factor 5 (ARF5), human, endogenous in GIST-T1 and PC-9 cells; also called ARF5; source: endogenous, GIST-T1 and PC-9 lysate

- level of GGA3-bound ARF after M-COPA treatment of the cells, relative to the untreated control [1]: < 18%
- fold increase of ARF co-immunoprecipitated with GBF1 after M-COPA treatment, relative to the untreated control [2]: 6.89 fold
B3: ADP-ribosylation factor 1 (natural protein)
chain: not shown
notes: ADP-ribosylation factor 1 (ARF1), human, endogenous in GIST-T1 and PC-9 cells; also called ARF1; source: endogenous, GIST-T1 and PC-9 lysate
